Reference: publication PMC10053502

Molecular target: S. pneumoniae DNA topoisomerase I (TopoI), purified (S. pneumoniae)

Which relaxation of pBR322 by TopoI in vitro (37 °C, 1 h) with increasing StaR concentrations; percent of topoisomers (including OC/RC forms) at the highest StaR concentration (CCC form fell to 2.5%) does the source give for “histidine-tagged StaR (H6-StaR), product of spr0929 of Streptococcus pneumoniae R6 (natural protein)” here?
The relaxation of pBR322 by TopoI in vitro (37 °C, 1 h) with increasing StaR concentrations; percent of topoisomers (including OC/RC forms) at the highest StaR concentration (CCC form fell to 2.5%) was 97.5%.
